Numbered stars: 1 amine (or outer) side, 2 acyl side, 3 side chain; on linkers, the order of the positions; unused ones are H or OH. Square brackets hold non-standard residues; d marks the D form. Side chains are listed from the residue outwards. Ends that are not written are not given here. * marks the point of attachment. C20 diacid = O=C(O)CCCCCCCCCCCCCCCCCCC(=O)*; γGlu = O=C(O)[C@H](CCC(=O)[*:2])N[*:1]; AEEA = NCCOCCOCC(=O)O; Aib = CC(C)(N)C(=O)O
Key:
[1] = target: human GLP-1 receptor (hGLP1R) (human, UniProt P43220 24-463); assay: cell-based or functional assay
[2] = target: human secretin receptor (hSCTR) (human, UniProt P47872 23-440); assay: cell-based or functional assay
Chain of human secretin receptor (hSCTR) (P47872 23-440): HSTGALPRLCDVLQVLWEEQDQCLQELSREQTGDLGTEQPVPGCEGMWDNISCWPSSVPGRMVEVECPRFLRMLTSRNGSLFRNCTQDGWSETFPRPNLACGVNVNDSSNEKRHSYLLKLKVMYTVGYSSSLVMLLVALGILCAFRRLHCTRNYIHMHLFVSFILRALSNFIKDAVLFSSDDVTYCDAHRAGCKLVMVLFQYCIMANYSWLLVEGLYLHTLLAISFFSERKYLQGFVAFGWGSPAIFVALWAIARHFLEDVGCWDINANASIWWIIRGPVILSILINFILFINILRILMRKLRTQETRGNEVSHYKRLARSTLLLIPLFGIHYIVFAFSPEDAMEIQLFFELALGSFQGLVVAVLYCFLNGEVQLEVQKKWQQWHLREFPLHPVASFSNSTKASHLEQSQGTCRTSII

Row | Binder | pEC50 hGLPR1 [1] | pEC50 hSCTR [2]
1 | H[Aib]EGTFTSDWSVLLEGAALQRFIQWLV-NH2 (N-terminus assumed; SMILES CC[C@H](C)[C@H](NC(=O)[C@H](Cc1ccccc1)NC(=O)[C@H](CCCNC(=N)N)NC(=O)[C@H](CCC(N)=O)NC(=O)[C@H](CC(C)C)NC(=O)[C@H](C)NC(=O)[C@H](C)NC(=O)CNC(=O)[C@H](CCC(=O)O)NC(=O)[C@H](CC(C)C)NC(=O)[C@H](CC(C)C)NC(=O)[C@@H](NC(=O)[C@H](CO)NC(=O)[C@H](Cc1c[nH]c2ccccc12)NC(=O)[C@H](CC(=O)O)NC(=O)[C@H](CO)NC(=O)[C@@H](NC(=O)[C@H](Cc1ccccc1)NC(=O)[C@@H](NC(=O)CNC(=O)[C@H](CCC(=O)O)NC(=O)C(C)(C)NC(=O)[C@@H](N)Cc1c[nH]cn1)[C@@H](C)O)[C@@H](C)O)C(C)C)C(=O)N[C@@H](CCC(N)=O)C(=O)N[C@@H](Cc1c[nH]c2ccccc12)C(=O)N[C@@H](CC(C)C)C(=O)N[C@H](C(N)=O)C(C)C) [SEQ ID NO: 188] | 10.1 -log M | 7.5 -log M
2 | H[Aib]EGTFTSDVSRLK([AEEA-AEEA-γGlu-C20 diacid])ELAASQRFLEHLV-NH2 [SEQ ID NO: 19] | 10.1 -log M | 6.2 -log M
3 | H[Aib]EGTFTSDVSVLLEGAALQRFIQWLV-NH2 (N-terminus assumed; SMILES CC[C@H](C)[C@H](NC(=O)[C@H](Cc1ccccc1)NC(=O)[C@H](CCCNC(=N)N)NC(=O)[C@H](CCC(N)=O)NC(=O)[C@H](CC(C)C)NC(=O)[C@H](C)NC(=O)[C@H](C)NC(=O)CNC(=O)[C@H](CCC(=O)O)NC(=O)[C@H](CC(C)C)NC(=O)[C@H](CC(C)C)NC(=O)[C@@H](NC(=O)[C@H](CO)NC(=O)[C@@H](NC(=O)[C@H](CC(=O)O)NC(=O)[C@H](CO)NC(=O)[C@@H](NC(=O)[C@H](Cc1ccccc1)NC(=O)[C@@H](NC(=O)CNC(=O)[C@H](CCC(=O)O)NC(=O)C(C)(C)NC(=O)[C@@H](N)Cc1c[nH]cn1)[C@@H](C)O)[C@@H](C)O)C(C)C)C(C)C)C(=O)N[C@@H](CCC(N)=O)C(=O)N[C@@H](Cc1c[nH]c2ccccc12)C(=O)N[C@@H](CC(C)C)C(=O)N[C@H](C(N)=O)C(C)C) [SEQ ID NO: 184] | 10.6 -log M | 6.6 -log M

Continued, values first:

Row | pEC50 hGLPR1 [1] | pEC50 hSCTR [2] | Binder
4 | 11.2 -log M | 7.3 -log M | H[Aib]EGTFTSDWSYLK([AEEA-AEEA-γGlu-C20 diacid])EEA[Aib]LQRFLEHLV-NH2 [SEQ ID NO: 185]
5 | 10.4 -log M | 7.3 -log M | H[Aib]EGTFTSDWSGLLEGAALQRFIQWLV-NH2 (N-terminus assumed; SMILES CC[C@H](C)[C@H](NC(=O)[C@H](Cc1ccccc1)NC(=O)[C@H](CCCNC(=N)N)NC(=O)[C@H](CCC(N)=O)NC(=O)[C@H](CC(C)C)NC(=O)[C@H](C)NC(=O)[C@H](C)NC(=O)CNC(=O)[C@H](CCC(=O)O)NC(=O)[C@H](CC(C)C)NC(=O)[C@H](CC(C)C)NC(=O)CNC(=O)[C@H](CO)NC(=O)[C@H](Cc1c[nH]c2ccccc12)NC(=O)[C@H](CC(=O)O)NC(=O)[C@H](CO)NC(=O)[C@@H](NC(=O)[C@H](Cc1ccccc1)NC(=O)[C@@H](NC(=O)CNC(=O)[C@H](CCC(=O)O)NC(=O)C(C)(C)NC(=O)[C@@H](N)Cc1c[nH]cn1)[C@@H](C)O)[C@@H](C)O)C(=O)N[C@@H](CCC(N)=O)C(=O)N[C@@H](Cc1c[nH]c2ccccc12)C(=O)N[C@@H](CC(C)C)C(=O)N[C@H](C(N)=O)C(C)C) [SEQ ID NO: 187]

From patent US20260201008A1, “SECRETIN-DERIVED GLP1R SELECTIVE AGONISTS” (GUBRA A/S, priority 2023, published 2026)
